The values that follow are results of earlier work, collected in article PMC12368481, “Discovery of a Phenylalanine‐Derived Natural Compound as a Potential Dual Inhibitor of MDM2 and MDMX” (Chemmedchem, 2025).

By pKd is commonly meant −log10 of the Kd, conventionally taken in molar units.

pKd: −log10 of the molar value. Like-named read-outs stand apart in the source and are kept apart here.

For data set [1], the target named is p53 peptide (Homo sapiens) (UniProt P04637).
Data set [2] has the same target. This is another data set of the same source.

Sequence of p53 peptide (Homo sapiens) (P04637 whole entry): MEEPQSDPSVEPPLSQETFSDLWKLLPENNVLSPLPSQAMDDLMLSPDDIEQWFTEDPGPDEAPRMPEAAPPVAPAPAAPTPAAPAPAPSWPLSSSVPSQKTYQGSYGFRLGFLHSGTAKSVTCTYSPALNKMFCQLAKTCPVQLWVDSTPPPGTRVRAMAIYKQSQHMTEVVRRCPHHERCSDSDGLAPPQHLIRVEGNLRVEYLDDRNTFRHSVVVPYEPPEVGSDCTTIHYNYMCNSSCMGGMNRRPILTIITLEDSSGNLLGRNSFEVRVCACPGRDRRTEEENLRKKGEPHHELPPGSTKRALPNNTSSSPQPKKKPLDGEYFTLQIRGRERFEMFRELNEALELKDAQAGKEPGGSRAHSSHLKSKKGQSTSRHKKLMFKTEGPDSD
Sequence of MDM2 (Q00987 whole entry): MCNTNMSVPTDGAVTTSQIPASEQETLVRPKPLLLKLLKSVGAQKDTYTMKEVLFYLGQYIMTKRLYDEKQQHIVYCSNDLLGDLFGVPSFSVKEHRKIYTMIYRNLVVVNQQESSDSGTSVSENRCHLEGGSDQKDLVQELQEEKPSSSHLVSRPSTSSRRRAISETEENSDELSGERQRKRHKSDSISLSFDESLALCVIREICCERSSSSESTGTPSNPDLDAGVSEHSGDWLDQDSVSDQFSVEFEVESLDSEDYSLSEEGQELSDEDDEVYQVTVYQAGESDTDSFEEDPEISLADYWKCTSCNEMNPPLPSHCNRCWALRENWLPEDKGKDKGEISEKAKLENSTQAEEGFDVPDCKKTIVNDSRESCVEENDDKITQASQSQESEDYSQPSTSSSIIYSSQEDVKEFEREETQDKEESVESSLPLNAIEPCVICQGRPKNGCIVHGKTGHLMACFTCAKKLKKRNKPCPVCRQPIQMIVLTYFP
Sequence of MDMX (O15151 whole entry): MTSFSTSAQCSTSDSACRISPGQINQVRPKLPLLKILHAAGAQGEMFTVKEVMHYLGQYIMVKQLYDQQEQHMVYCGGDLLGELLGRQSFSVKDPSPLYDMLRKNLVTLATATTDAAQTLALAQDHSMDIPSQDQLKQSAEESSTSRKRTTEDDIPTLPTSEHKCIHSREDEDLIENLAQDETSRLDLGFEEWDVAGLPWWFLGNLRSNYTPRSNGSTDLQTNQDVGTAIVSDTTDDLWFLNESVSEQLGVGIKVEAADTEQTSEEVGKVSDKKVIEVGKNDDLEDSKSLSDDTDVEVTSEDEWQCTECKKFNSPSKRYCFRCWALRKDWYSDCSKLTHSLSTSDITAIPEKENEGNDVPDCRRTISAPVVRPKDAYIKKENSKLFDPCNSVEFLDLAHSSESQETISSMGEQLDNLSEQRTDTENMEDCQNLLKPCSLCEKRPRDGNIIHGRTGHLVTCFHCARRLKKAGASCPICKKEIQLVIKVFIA

Regarding MDM2 (from UniProt Q00987), in data set [1], the pKd is 5.95. As to MDMX (from UniProt O15151), the pKd in data set [2] was 6.47.
